Measured values published in US20220098265A1 (MEDIMMUNE LIMITED, priority 2012, published 2022).
Where two headings read alike, the source gives them in different places. Values belong to the molecule of their own block, whether it stands above or below them. Numbered stars: 1 amine (or outer) side, 2 acyl side, 3 side chain; on linkers, the order of the positions; unused ones are H or OH. Side chains are listed from the residue outwards. Ends that are not written are not given here. * marks the point of attachment. γGlu = O=C(O)[C@H](CCC(=O)[*:2])N[*:1]; Palmitoyl = CCCCCCCCCCCCCCCC(=O)*

Tests used:
Mouse GlucR = Mouse GlucR (Mus musculus, UniProt Q61606); assay: cAMP assay 2 in […] mouse serum albumin, mouse GlucR; settings: assay 2, […] Mouse Serum Albumin; relative potencies vs natural ligands
Human GlucR = Human GlucR (Homo sapiens, UniProt P47871); assay: cAMP assay 2 in 4.4% human serum albumin, human GlucR; settings: assay 2, 4.4% Human Serum Albumin; relative potency GlucR (vs glucagon)/relative potency GLP1R (vs GLP1)
[1] = frozen blank plasma from rat; settings: 37° C, up to 48 hours
[2] = frozen blank plasma from mouse; settings: 37° C, up to 48 hours
human GLP-1 receptor [3] = biological target: T1, human GLP-1 receptor (human, UniProt P43220 24-463); assay: cell-based or functional assay
human glucagon receptor [4] = biological target: T2, human glucagon receptor (human, UniProt P47871 26-477); assay: cell-based or functional assay
human GLP-1 receptor [5] = biological target: T1, human GLP-1 receptor; assay: cell-based or functional assay; remark: listed apart in the source
[6] = biological target: T3, human glucose-dependent insulinotropic peptide (gastric inhibitory polypeptide) receptor (human, UniProt P48546 22-466); assay: cell-based or functional assay
T3 sequence (looked up): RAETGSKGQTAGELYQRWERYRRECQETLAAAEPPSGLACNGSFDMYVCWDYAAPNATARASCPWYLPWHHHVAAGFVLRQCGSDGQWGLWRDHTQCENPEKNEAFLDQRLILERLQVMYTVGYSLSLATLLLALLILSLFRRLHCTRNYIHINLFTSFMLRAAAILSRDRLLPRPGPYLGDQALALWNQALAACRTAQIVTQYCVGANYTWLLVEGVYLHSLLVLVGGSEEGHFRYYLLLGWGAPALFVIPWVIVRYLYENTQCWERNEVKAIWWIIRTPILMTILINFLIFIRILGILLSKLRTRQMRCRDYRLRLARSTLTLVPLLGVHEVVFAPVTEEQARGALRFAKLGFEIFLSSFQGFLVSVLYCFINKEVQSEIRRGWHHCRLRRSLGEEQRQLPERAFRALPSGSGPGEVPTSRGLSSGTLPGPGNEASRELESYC

human glucagon receptor [7] = biological target: T2, human glucagon receptor; assay: cell-based or functional assay; remark: listed apart in the source
human GLP-1 receptor [8] = biological target: T1, human GLP-1 receptor; assay: cell-based or functional assay; remark: listed apart in the source
[9] = biological target: T3, human glucose-dependent insulinotropic …; assay: cell-based or functional assay; remark: listed apart in the source
human glucagon receptor [10] = biological target: T2, human glucagon receptor; assay: cell-based or functional assay; remark: listed apart in the source
human GLP-1 receptor [11] = biological target: T1, human GLP-1 receptor; assay: cell-based or functional assay; remark: listed apart in the source
mouse GLP-1 receptor = biological target: T4, mouse GLP-1 receptor (mouse, UniProt O35659 22-463); assay: cell-based or functional assay
T4 sequence (looked up): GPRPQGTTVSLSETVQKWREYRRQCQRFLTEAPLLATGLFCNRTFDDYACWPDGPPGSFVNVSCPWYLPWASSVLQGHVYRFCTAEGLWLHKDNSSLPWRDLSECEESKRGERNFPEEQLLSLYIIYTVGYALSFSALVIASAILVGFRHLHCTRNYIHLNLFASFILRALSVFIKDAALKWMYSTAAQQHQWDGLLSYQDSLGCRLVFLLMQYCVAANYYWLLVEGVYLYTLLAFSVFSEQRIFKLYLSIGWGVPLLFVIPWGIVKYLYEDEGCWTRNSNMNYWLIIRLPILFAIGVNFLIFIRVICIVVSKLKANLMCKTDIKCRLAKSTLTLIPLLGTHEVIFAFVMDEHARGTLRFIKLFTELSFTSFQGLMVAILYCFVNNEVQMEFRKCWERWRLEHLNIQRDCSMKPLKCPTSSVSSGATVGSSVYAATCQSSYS

mouse glucagon receptor = mouse glucagon receptor (mouse, UniProt Q61606 27-485); assay: cell-based or functional assay
rat GLP-1 receptor = biological target: T5, rat GLP-1 receptor (rat, UniProt P32301 22-463); assay: cell-based or functional assay
T5 sequence (looked up): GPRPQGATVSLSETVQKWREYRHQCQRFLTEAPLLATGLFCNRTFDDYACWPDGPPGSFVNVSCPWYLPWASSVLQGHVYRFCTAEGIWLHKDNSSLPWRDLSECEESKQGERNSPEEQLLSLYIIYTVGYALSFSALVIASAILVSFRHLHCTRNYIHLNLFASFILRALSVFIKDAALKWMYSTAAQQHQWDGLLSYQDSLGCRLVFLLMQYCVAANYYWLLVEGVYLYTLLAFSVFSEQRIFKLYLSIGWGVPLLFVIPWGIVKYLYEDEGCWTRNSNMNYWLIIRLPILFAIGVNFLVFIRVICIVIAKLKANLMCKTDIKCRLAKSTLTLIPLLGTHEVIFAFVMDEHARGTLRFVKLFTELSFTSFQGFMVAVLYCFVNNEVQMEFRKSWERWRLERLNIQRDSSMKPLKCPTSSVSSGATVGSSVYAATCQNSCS

rat glucagon receptor = rat glucagon receptor (rat, UniProt P30082 27-485); assay: cell-based or functional assay
human serum albumin = human serum albumin (Homo sapiens, UniProt P02768); assay: calculated from the variation in cAMP generation with the HSA concentration (assay 2)
human serum albumin, sequence (P02768 25-609 limits assumed): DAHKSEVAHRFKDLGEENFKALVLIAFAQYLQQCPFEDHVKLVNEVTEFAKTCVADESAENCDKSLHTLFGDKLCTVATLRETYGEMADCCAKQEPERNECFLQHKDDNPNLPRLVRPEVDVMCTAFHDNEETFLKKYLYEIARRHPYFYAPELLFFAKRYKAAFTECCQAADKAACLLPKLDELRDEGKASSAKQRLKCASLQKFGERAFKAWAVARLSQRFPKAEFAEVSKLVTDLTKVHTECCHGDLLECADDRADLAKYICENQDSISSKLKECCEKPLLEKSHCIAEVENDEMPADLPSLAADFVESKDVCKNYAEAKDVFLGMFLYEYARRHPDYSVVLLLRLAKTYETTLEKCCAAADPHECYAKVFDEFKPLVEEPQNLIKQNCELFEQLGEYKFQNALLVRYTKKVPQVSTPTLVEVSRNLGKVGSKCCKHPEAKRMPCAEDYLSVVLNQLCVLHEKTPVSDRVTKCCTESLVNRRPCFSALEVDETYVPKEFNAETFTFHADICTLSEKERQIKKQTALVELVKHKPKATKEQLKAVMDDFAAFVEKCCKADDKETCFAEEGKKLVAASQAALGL

T2 sequence (P47871 26-477): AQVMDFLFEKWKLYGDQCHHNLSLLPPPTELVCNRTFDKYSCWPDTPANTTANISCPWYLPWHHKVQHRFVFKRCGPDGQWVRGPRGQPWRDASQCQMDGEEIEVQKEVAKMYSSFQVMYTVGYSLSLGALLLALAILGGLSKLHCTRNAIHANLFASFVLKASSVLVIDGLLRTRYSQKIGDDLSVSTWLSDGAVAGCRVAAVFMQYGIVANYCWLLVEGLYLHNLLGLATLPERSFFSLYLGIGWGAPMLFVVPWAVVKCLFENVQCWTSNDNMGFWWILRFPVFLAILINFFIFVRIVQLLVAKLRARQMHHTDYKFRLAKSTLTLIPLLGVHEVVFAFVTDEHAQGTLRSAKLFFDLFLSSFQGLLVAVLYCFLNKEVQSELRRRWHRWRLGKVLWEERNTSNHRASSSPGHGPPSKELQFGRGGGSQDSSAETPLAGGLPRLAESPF
mouse glucagon receptor, sequence (Q61606 27-485): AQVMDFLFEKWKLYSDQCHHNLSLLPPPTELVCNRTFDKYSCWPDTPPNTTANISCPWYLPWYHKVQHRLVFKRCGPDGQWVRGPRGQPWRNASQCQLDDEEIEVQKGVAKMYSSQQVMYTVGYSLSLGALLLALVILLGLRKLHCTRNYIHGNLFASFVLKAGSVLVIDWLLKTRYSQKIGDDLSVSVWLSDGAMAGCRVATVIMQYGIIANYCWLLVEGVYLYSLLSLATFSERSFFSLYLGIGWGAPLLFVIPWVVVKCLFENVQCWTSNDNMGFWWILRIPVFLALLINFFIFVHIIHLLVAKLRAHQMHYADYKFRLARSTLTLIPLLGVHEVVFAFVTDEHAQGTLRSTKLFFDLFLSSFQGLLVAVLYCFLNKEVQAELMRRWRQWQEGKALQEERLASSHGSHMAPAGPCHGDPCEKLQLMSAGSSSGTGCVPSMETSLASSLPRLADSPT
Mouse GlucR, sequence (Q61606 27-485): as above
rat glucagon receptor, sequence (P30082 27-485): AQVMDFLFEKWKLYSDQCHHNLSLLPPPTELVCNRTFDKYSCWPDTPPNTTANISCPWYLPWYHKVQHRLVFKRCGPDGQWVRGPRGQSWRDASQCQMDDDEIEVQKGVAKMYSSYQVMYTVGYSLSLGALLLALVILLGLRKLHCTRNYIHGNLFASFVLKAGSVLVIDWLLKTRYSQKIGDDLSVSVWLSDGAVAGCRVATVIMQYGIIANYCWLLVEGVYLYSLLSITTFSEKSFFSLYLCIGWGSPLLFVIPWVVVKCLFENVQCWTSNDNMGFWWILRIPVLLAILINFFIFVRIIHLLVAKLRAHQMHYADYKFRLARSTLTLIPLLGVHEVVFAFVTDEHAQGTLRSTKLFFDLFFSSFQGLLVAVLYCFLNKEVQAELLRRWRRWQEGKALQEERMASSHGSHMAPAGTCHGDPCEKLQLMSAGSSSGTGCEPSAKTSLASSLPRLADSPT
Human GlucR, sequence (P47871 26-477): as the sequence (P47871 26-477) above

- Mouse GlucR/GLP1R Ratio (Mouse GlucR): 0.006
- Human GlucR/GLP1R Ratio (Human GlucR): 0.013
Molecule: CCCCCCCCCCCCCCCC(=O)N[C@@H](CCC(=O)NCCCC[C@H](NC(=O)[C@H](CO)NC(=O)[C@H](CC(=O)O)NC(=O)[C@H](CC(C)C)NC(=O)[C@H](Cc1ccc(O)cc1)NC(=O)[C@H](CCCCN)NC(=O)[C@H](CO)NC(=O)[C@H](Cc1ccc(O)cc1)NC(=O)[C@H](CC(=O)O)NC(=O)[C@H](CO)NC(=O)[C@@H](NC(=O)[C@H](Cc1ccccc1)NC(=O)[C@@H](NC(=O)CNC(=O)[C@H](CCC(N)=O)NC(=O)CNC(=O)[C@@H](N)Cc1c[nH]cn1)[C@@H](C)O)[C@@H](C)O)C(=O)N[C@@H](CCCNC(=N)N)C(=O)N[C@@H](C)C(=O)N[C@@H](CCC(N)=O)C(=O)N[C@@H](CC(=O)O)C(=O)N[C@@H](Cc1ccccc1)C(=O)N[C@H](C(=O)N[C@@H](CCC(N)=O)C(=O)N[C@@H](Cc1c[nH]c2ccccc12)C(=O)N[C@@H](CC(C)C)C(=O)N[C@H](C(=O)N[C@@H](C)C(=O)NCC(=O)NCC(N)=O)C(C)C)C(C)C)C(=O)O [Peptide G380]

- fragment found [1]: DPP IV-cleavage product
- fragment found [2]: DPP IV-cleavage product
Molecule: HSQGTFTSDYSKXLDSERARDFVAWLVAGG-amide X13 = K(gE-palm)

- EC50 at the GLP1R at 0% HSA (calculated from cAMP generation against HSA concentration) (human GLP-1 receptor [3]): 0.007 nM
- cAMP EC50 (assay 1) (human glucagon receptor [4]): 0.00623 nM
- cAMP EC50 (assay 1) (human GLP-1 receptor [5]): 0.018 nM
- cAMP EC50 (assay 1) [6]: 45 nM
- cAMP EC50 (assay 1) (human glucagon receptor [7]): 0.015 nM
- cAMP EC50 (assay 1) (human GLP-1 receptor [8]): 0.0395 nM
- cAMP EC50 (assay 1) [9]: 56.6 nM
- cAMP EC50 (assay 2, 4.4% human serum albumin) (human glucagon receptor [10]): 0.402 nM
- cAMP EC50 (assay 2, 4.4% human serum albumin) (human GLP-1 receptor [11]): 0.455 nM
- cAMP EC50 (assay 2, 3.2% mouse serum albumin) (mouse GLP-1 receptor): 1.1 nM
- cAMP EC50 (assay 2, 3.2% mouse serum albumin) (mouse glucagon receptor): 5.46 nM
- cAMP EC50 (assay 2, 3.2% rat serum albumin) (rat GLP-1 receptor): 0.081 nM
- cAMP EC50 (assay 2, 3.2% rat serum albumin) (rat glucagon receptor): 45.1 nM
- free peptide at 4.4% HSA (human serum albumin): 0.85%
B1: G730 (peptide)
peptide: HSQGTFTSDYSKK([γGlu-Palmitoyl])LDSERARDFVAWLVAGG-NH2
modifications: N-terminus assumed
SMILES: CCCCCCCCCCCCCCCC(=O)N[C@@H](CCC(=O)NCCCC[C@H](NC(=O)[C@H](CCCCN)NC(=O)[C@H](CO)NC(=O)[C@H](Cc1ccc(O)cc1)NC(=O)[C@H](CC(=O)O)NC(=O)[C@H](CO)NC(=O)[C@@H](NC(=O)[C@H](Cc1ccccc1)NC(=O)[C@@H](NC(=O)CNC(=O)[C@H](CCC(N)=O)NC(=O)[C@H](CO)NC(=O)[C@@H](N)Cc1c[nH]cn1)[C@@H](C)O)[C@@H](C)O)C(=O)N[C@@H](CC(C)C)C(=O)N[C@@H](CC(=O)O)C(=O)N[C@@H](CO)C(=O)N[C@@H](CCC(=O)O)C(=O)N[C@@H](CCCNC(=N)N)C(=O)N[C@@H](C)C(=O)N[C@@H](CCCNC(=N)N)C(=O)N[C@@H](CC(=O)O)C(=O)N[C@@H](Cc1ccccc1)C(=O)N[C@H](C(=O)N[C@@H](C)C(=O)N[C@@H](Cc1c[nH]c2ccccc12)C(=O)N[C@@H](CC(C)C)C(=O)N[C@H](C(=O)N[C@@H](C)C(=O)NCC(=O)NCC(N)=O)C(C)C)C(C)C)C(=O)O
